# Measured values as given in patent US20130005646A1 (Novo Nordisk, published 2013).
# Starred links: 1 amine or outer side, 2 acyl side, 3 side chain; linkers in the order of their positions; H or OH if unused. Positions of bridges follow the written chain, without caps; N, C: chain ends. Non-standard residues stand in square brackets, D forms with d. *: point of attachment. C20 diacid = O=C(O)CCCCCCCCCCCCCCCCCCC(=O)*; C18 diacid = O=C(O)CCCCCCCCCCCCCCCCC(=O)*; γGlu = O=C(O)[C@H](CCC(=O)[*:2])N[*:1]; Orn = NCCC[C@H](N)C(=O)O; AEEA = NCCOCCOCC(=O)O
# What was measured:
# Test in all cases: cell-based or functional assay
# [1] = molecular target: T1, rat calcitonin (a) receptor (rat, UniProt P32214 25-516)
# T1 sequence (looked up): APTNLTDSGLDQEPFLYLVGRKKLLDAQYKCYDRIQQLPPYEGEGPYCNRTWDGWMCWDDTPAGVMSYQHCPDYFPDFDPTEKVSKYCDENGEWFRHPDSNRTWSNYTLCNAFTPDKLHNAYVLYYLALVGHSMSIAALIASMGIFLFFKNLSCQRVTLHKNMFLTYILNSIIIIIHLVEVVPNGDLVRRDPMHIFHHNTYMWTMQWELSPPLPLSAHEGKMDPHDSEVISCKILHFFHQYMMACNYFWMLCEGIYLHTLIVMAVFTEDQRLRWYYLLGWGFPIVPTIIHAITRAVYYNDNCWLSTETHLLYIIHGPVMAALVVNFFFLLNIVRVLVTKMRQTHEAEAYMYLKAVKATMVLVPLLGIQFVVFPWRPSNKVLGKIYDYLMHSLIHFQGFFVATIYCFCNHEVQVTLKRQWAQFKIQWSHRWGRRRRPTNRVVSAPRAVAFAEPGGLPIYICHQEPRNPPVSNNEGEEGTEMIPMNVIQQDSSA
# [2] = molecular target: T2, rat amylin 3(a) receptor (rat calcitonin(a) receptor + rat RAMP3) (rat, UniProt P32214 25-516; Q9JJ73 23-147)
# T2 sequence (looked up) 1: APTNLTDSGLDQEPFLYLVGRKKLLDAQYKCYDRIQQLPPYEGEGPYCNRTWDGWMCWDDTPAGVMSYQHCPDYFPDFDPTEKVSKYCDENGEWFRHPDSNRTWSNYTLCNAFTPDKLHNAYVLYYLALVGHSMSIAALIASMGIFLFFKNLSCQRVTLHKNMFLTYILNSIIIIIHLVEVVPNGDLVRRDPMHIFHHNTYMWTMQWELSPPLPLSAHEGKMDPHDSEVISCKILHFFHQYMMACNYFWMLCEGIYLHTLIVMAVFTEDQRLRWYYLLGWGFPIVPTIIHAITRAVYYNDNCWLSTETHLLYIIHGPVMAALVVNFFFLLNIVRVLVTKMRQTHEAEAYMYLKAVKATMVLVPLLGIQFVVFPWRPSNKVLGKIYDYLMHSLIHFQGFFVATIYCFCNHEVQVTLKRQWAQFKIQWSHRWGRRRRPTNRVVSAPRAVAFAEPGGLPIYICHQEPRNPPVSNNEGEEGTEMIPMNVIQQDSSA
# T2 sequence (looked up) 2: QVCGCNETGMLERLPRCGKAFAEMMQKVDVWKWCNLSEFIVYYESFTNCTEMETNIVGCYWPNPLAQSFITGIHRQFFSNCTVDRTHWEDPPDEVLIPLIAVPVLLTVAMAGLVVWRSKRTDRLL
# [3] = molecular target: T3, human calcitonin (a) receptor (human, UniProt P30988 25-474)
# T3 sequence (looked up): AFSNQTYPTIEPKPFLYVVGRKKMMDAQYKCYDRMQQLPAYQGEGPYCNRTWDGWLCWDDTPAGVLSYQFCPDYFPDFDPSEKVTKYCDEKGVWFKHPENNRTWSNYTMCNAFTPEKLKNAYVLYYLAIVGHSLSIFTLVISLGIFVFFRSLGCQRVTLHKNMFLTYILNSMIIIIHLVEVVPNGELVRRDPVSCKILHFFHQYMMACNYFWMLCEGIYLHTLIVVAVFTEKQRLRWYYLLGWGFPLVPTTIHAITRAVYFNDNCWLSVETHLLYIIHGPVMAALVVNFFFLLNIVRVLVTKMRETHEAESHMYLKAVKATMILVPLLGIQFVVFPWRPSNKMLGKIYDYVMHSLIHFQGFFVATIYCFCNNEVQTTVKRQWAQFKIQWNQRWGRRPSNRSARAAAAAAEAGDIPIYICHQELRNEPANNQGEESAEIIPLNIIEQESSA
# [4] = molecular target: T4, human amylin 3(a) receptor (human calcitonin receptor + RAMP-3) (human, UniProt P30988 25-474; O60896 24-148)
# T4 sequence (looked up) 1: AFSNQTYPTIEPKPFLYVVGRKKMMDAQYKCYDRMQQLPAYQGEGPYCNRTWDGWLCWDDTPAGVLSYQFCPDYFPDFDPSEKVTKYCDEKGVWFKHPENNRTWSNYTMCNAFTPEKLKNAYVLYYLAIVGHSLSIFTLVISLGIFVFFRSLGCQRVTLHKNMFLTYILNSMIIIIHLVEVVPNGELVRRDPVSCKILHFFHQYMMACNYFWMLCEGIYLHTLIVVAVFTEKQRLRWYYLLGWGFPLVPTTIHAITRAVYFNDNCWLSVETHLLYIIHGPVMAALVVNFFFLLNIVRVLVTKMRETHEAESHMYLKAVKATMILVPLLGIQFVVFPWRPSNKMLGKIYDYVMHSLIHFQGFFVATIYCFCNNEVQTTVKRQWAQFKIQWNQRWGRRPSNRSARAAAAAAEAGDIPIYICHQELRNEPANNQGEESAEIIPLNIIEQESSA
# T4 sequence (looked up) 2: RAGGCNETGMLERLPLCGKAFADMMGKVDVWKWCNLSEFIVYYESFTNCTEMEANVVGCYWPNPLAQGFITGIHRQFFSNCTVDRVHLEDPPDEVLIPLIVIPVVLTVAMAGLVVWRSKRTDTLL
CTa receptor rat EC50 [1],Amylin receptor rat EC50 [2],CTa receptor human EC50 [3],Amylin receptor human EC50 [4],Binder
0.379 nM,0.0645 nM,0.15 nM,0.0934 nM,"{C20 diacid-γGlu}-HCNTATCATQRLAEFLHRSSNNFGPILPPTNVGSNTY-NH2 (disulfide 2-7; SMILES CC[C@H](C)[C@H](NC(=O)[C@@H]1CCCN1C(=O)CNC(=O)[C@H](Cc1ccccc1)NC(=O)[C@H](CC(N)=O)NC(=O)[C@H](CC(N)=O)NC(=O)[C@H](CO)NC(=O)[C@H](CO)NC(=O)[C@H](CCCNC(=N)N)NC(=O)[C@H](Cc1c[nH]cn1)NC(=O)[C@H](CC(C)C)NC(=O)[C@H](Cc1ccccc1)NC(=O)[C@H](CCC(=O)O)NC(=O)[C@H](C)NC(=O)[C@H](CC(C)C)NC(=O)[C@H](CCCNC(=N)N)NC(=O)[C@H](CCC(N)=O)NC(=O)[C@@H](NC(=O)[C@H](C)NC(=O)[C@@H]1CSSC[C@H](NC(=O)[C@H](Cc2c[nH]cn2)NC(=O)CC[C@H](NC(=O)CCCCCCCCCCCCCCCCCCC(=O)O)C(=O)O)C(=O)N[C@@H](CC(N)=O)C(=O)N[C@@H]([C@@H](C)O)C(=O)N[C@@H](C)C(=O)N[C@@H]([C@@H](C)O)C(=O)N1)[C@@H](C)O)C(=O)N[C@@H](CC(C)C)C(=O)N1CCC[C@H]1C(=O)N1CCC[C@H]1C(=O)N[C@H](C(=O)N[C@@H](CC(N)=O)C(=O)N[C@H](C(=O)NCC(=O)N[C@@H](CO)C(=O)N[C@@H](CC(N)=O)C(=O)N[C@H](C(=O)N[C@@H](Cc1ccc(O)cc1)C(N)=O)[C@@H](C)O)C(C)C)[C@@H](C)O) [N-alpha-[(S)-4-Carboxy-4-(19-carboxynonadecanoylamino)butyryl]-[His1,Glu14,His17,Arg18]-pramlintide]"
1.73 nM,0.331 nM,0.208 nM,0.212 nM,{C20 diacid-γGlu}-HCNTATCATQRLAEFLHRSSSSFGPILPPTDVGSDTY-NH2 (disulfide 2-7; SMILES CC[C@H](C)[C@H](NC(=O)[C@@H]1CCCN1C(=O)CNC(=O)[C@H](Cc1ccccc1)NC(=O)[C@H](CO)NC(=O)[C@H](CO)NC(=O)[C@H](CO)NC(=O)[C@H](CO)NC(=O)[C@H](CCCNC(=N)N)NC(=O)[C@H](Cc1c[nH]cn1)NC(=O)[C@H](CC(C)C)NC(=O)[C@H](Cc1ccccc1)NC(=O)[C@H](CCC(=O)O)NC(=O)[C@H](C)NC(=O)[C@H](CC(C)C)NC(=O)[C@H](CCCNC(=N)N)NC(=O)[C@H](CCC(N)=O)NC(=O)[C@@H](NC(=O)[C@H](C)NC(=O)[C@@H]1CSSC[C@H](NC(=O)[C@H](Cc2c[nH]cn2)NC(=O)CC[C@H](NC(=O)CCCCCCCCCCCCCCCCCCC(=O)O)C(=O)O)C(=O)N[C@@H](CC(N)=O)C(=O)N[C@@H]([C@@H](C)O)C(=O)N[C@@H](C)C(=O)N[C@@H]([C@@H](C)O)C(=O)N1)[C@@H](C)O)C(=O)N[C@@H](CC(C)C)C(=O)N1CCC[C@H]1C(=O)N1CCC[C@H]1C(=O)N[C@H](C(=O)N[C@@H](CC(=O)O)C(=O)N[C@H](C(=O)NCC(=O)N[C@@H](CO)C(=O)N[C@@H](CC(=O)O)C(=O)N[C@H](C(=O)N[C@@H](Cc1ccc(O)cc1)C(N)=O)[C@@H](C)O)C(C)C)[C@@H](C)O)

# Second part, the binder before the results:
Binder,CTa receptor rat EC50 [1],Amylin receptor rat EC50 [2],CTa receptor human EC50 [3],Amylin receptor human EC50 [4]
{C20 diacid-γGlu}-HHHCNTATCATQRLAEFLHHSSNNFGPILPPTNVGSNTY-NH2 (disulfide 4-9; SMILES CC[C@H](C)[C@H](NC(=O)[C@@H]1CCCN1C(=O)CNC(=O)[C@H](Cc1ccccc1)NC(=O)[C@H](CC(N)=O)NC(=O)[C@H](CC(N)=O)NC(=O)[C@H](CO)NC(=O)[C@H](CO)NC(=O)[C@H](Cc1c[nH]cn1)NC(=O)[C@H](Cc1c[nH]cn1)NC(=O)[C@H](CC(C)C)NC(=O)[C@H](Cc1ccccc1)NC(=O)[C@H](CCC(=O)O)NC(=O)[C@H](C)NC(=O)[C@H](CC(C)C)NC(=O)[C@H](CCCNC(=N)N)NC(=O)[C@H](CCC(N)=O)NC(=O)[C@@H](NC(=O)[C@H](C)NC(=O)[C@@H]1CSSC[C@H](NC(=O)[C@H](Cc2c[nH]cn2)NC(=O)[C@H](Cc2c[nH]cn2)NC(=O)[C@H](Cc2c[nH]cn2)NC(=O)CC[C@H](NC(=O)CCCCCCCCCCCCCCCCCCC(=O)O)C(=O)O)C(=O)N[C@@H](CC(N)=O)C(=O)N[C@@H]([C@@H](C)O)C(=O)N[C@@H](C)C(=O)N[C@@H]([C@@H](C)O)C(=O)N1)[C@@H](C)O)C(=O)N[C@@H](CC(C)C)C(=O)N1CCC[C@H]1C(=O)N1CCC[C@H]1C(=O)N[C@H](C(=O)N[C@@H](CC(N)=O)C(=O)N[C@H](C(=O)NCC(=O)N[C@@H](CO)C(=O)N[C@@H](CC(N)=O)C(=O)N[C@H](C(=O)N[C@@H](Cc1ccc(O)cc1)C(N)=O)[C@@H](C)O)C(C)C)[C@@H](C)O),0.962 nM,0.0885 nM,0.208 nM,0.0853 nM
{C18 diacid-γGlu-AEEA-AEEA}-[dR][dR][Orn]CNTATCATQRLAEFLHRSSNNFGPILPPTNVGSNTY-NH2 (disulfide 4-9; SMILES CC[C@H](C)[C@H](NC(=O)[C@@H]1CCCN1C(=O)CNC(=O)[C@H](Cc1ccccc1)NC(=O)[C@H](CC(N)=O)NC(=O)[C@H](CC(N)=O)NC(=O)[C@H](CO)NC(=O)[C@H](CO)NC(=O)[C@H](CCCNC(=N)N)NC(=O)[C@H](Cc1c[nH]cn1)NC(=O)[C@H](CC(C)C)NC(=O)[C@H](Cc1ccccc1)NC(=O)[C@H](CCC(=O)O)NC(=O)[C@H](C)NC(=O)[C@H](CC(C)C)NC(=O)[C@H](CCCNC(=N)N)NC(=O)[C@H](CCC(N)=O)NC(=O)[C@@H](NC(=O)[C@H](C)NC(=O)[C@@H]1CSSC[C@H](NC(=O)[C@H](CCCN)NC(=O)[C@@H](CCCNC(=N)N)NC(=O)[C@@H](CCCNC(=N)N)NC(=O)COCCOCCNC(=O)COCCOCCNC(=O)CC[C@H](NC(=O)CCCCCCCCCCCCCCCCC(=O)O)C(=O)O)C(=O)N[C@@H](CC(N)=O)C(=O)N[C@@H]([C@@H](C)O)C(=O)N[C@@H](C)C(=O)N[C@@H]([C@@H](C)O)C(=O)N1)[C@@H](C)O)C(=O)N[C@@H](CC(C)C)C(=O)N1CCC[C@H]1C(=O)N1CCC[C@H]1C(=O)N[C@H](C(=O)N[C@@H](CC(N)=O)C(=O)N[C@H](C(=O)NCC(=O)N[C@@H](CO)C(=O)N[C@@H](CC(N)=O)C(=O)N[C@H](C(=O)N[C@@H](Cc1ccc(O)cc1)C(N)=O)[C@@H](C)O)C(C)C)[C@@H](C)O),2.57 nM,0.033 nM,0.691 nM,0.0295 nM
{C20 diacid-γGlu}-ECNTATCATQRLAEFLHRSSNNFGPILPPTNVGSNTP-NH2 (disulfide 2-7; SMILES CC[C@H](C)[C@H](NC(=O)[C@@H]1CCCN1C(=O)CNC(=O)[C@H](Cc1ccccc1)NC(=O)[C@H](CC(N)=O)NC(=O)[C@H](CC(N)=O)NC(=O)[C@H](CO)NC(=O)[C@H](CO)NC(=O)[C@H](CCCNC(=N)N)NC(=O)[C@H](Cc1c[nH]cn1)NC(=O)[C@H](CC(C)C)NC(=O)[C@H](Cc1ccccc1)NC(=O)[C@H](CCC(=O)O)NC(=O)[C@H](C)NC(=O)[C@H](CC(C)C)NC(=O)[C@H](CCCNC(=N)N)NC(=O)[C@H](CCC(N)=O)NC(=O)[C@@H](NC(=O)[C@H](C)NC(=O)[C@@H]1CSSC[C@H](NC(=O)[C@H](CCC(=O)O)NC(=O)CC[C@H](NC(=O)CCCCCCCCCCCCCCCCCCC(=O)O)C(=O)O)C(=O)N[C@@H](CC(N)=O)C(=O)N[C@@H]([C@@H](C)O)C(=O)N[C@@H](C)C(=O)N[C@@H]([C@@H](C)O)C(=O)N1)[C@@H](C)O)C(=O)N[C@@H](CC(C)C)C(=O)N1CCC[C@H]1C(=O)N1CCC[C@H]1C(=O)N[C@H](C(=O)N[C@@H](CC(N)=O)C(=O)N[C@H](C(=O)NCC(=O)N[C@@H](CO)C(=O)N[C@@H](CC(N)=O)C(=O)N[C@H](C(=O)N1CCC[C@H]1C(N)=O)[C@@H](C)O)C(C)C)[C@@H](C)O),0.806 nM,0.374 nM,0.0864 nM,0.0823 nM
